Data as given in patent US11130793B2, “GLP-1/GLP-2 dual agonists” (Zealand Pharma A/S, priority 2016, dated 2021).
Values belong to the binder of their own block, whether it stands above or below them. Square brackets hold non-standard residues; d marks the D form. Aib = CC(C)(N)C(=O)O

Columns and labels:
[1] = target: human glucagon-like peptide 1 receptor (GLP-1R) (human, UniProt P43220); experiment: cell-based or functional assay
[2] = target: T1, human GLP-2 receptor (hGLP2-R) (human, UniProt O95838); experiment: cell-based or functional assay
T1 sequence: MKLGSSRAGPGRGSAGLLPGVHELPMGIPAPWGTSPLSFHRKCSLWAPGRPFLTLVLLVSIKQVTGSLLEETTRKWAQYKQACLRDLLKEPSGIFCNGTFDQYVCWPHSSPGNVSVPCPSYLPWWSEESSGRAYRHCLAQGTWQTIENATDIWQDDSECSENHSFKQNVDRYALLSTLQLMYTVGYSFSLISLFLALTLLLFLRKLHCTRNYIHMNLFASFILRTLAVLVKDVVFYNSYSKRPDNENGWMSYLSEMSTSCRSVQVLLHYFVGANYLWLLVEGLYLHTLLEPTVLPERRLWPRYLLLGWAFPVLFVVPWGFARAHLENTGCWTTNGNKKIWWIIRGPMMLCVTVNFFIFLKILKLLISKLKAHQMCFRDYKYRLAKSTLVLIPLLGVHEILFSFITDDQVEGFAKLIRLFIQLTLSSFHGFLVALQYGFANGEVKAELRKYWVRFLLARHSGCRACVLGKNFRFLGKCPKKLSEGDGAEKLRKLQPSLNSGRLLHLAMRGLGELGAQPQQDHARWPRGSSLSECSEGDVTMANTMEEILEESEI

EC50 GLP-1 (nM); cAMP AlphaScreen [1]: 0.12 nM
EC50 GLP-2 (nM); cAMP AlphaScreen [2]: 0.034 nM
B1: Compound 23 (peptide)
peptide: H-H[Aib]EGSFTSELATILDEQAARDFIAWLYEHKITD-OH
SMILES: CC[C@H](C)[C@H](NC(=O)[C@H](Cc1ccccc1)NC(=O)[C@H](CC(=O)O)NC(=O)[C@H](CCCNC(=N)N)NC(=O)[C@H](C)NC(=O)[C@H](C)NC(=O)[C@H](CCC(N)=O)NC(=O)[C@H](CCC(=O)O)NC(=O)[C@H](CC(=O)O)NC(=O)[C@H](CC(C)C)NC(=O)[C@@H](NC(=O)[C@@H](NC(=O)[C@H](C)NC(=O)[C@H](CC(C)C)NC(=O)[C@H](CCC(=O)O)NC(=O)[C@H](CO)NC(=O)[C@@H](NC(=O)[C@H](Cc1ccccc1)NC(=O)[C@H](CO)NC(=O)CNC(=O)[C@H](CCC(=O)O)NC(=O)C(C)(C)NC(=O)[C@@H](N)Cc1c[nH]cn1)[C@@H](C)O)[C@@H](C)O)[C@@H](C)CC)C(=O)N[C@@H](C)C(=O)N[C@@H](Cc1c[nH]c2ccccc12)C(=O)N[C@@H](CC(C)C)C(=O)N[C@@H](Cc1ccc(O)cc1)C(=O)N[C@@H](CCC(=O)O)C(=O)N[C@@H](Cc1c[nH]cn1)C(=O)N[C@@H](CCCCN)C(=O)N[C@H](C(=O)N[C@H](C(=O)N[C@@H](CC(=O)O)C(=O)O)[C@@H](C)O)[C@@H](C)CC

EC50 GLP-1 (nM); cAMP AlphaScreen [1]: 0.049 nM
EC50 GLP-2 (nM); cAMP AlphaScreen [2]: 0.11 nM
B2: Compound 21 (peptide)
peptide: H-H[Aib]EGTFTSELATILDEQAARDFIAWLHQHKITD-OH
SMILES: CC[C@H](C)[C@H](NC(=O)[C@H](Cc1ccccc1)NC(=O)[C@H](CC(=O)O)NC(=O)[C@H](CCCNC(=N)N)NC(=O)[C@H](C)NC(=O)[C@H](C)NC(=O)[C@H](CCC(N)=O)NC(=O)[C@H](CCC(=O)O)NC(=O)[C@H](CC(=O)O)NC(=O)[C@H](CC(C)C)NC(=O)[C@@H](NC(=O)[C@@H](NC(=O)[C@H](C)NC(=O)[C@H](CC(C)C)NC(=O)[C@H](CCC(=O)O)NC(=O)[C@H](CO)NC(=O)[C@@H](NC(=O)[C@H](Cc1ccccc1)NC(=O)[C@@H](NC(=O)CNC(=O)[C@H](CCC(=O)O)NC(=O)C(C)(C)NC(=O)[C@@H](N)Cc1c[nH]cn1)[C@@H](C)O)[C@@H](C)O)[C@@H](C)O)[C@@H](C)CC)C(=O)N[C@@H](C)C(=O)N[C@@H](Cc1c[nH]c2ccccc12)C(=O)N[C@@H](CC(C)C)C(=O)N[C@@H](Cc1c[nH]cn1)C(=O)N[C@@H](CCC(N)=O)C(=O)N[C@@H](Cc1c[nH]cn1)C(=O)N[C@@H](CCCCN)C(=O)N[C@H](C(=O)N[C@H](C(=O)N[C@@H](CC(=O)O)C(=O)O)[C@@H](C)O)[C@@H](C)CC

EC50 GLP-1 (nM); cAMP AlphaScreen [1]: 0.28 nM
EC50 GLP-2 (nM); cAMP AlphaScreen [2]: 0.042 nM
B5: Compound 22 (peptide)
peptide: H-H[Aib]EGSFTSELATILDEQAARDFIAWLHAHKITD-OH
SMILES: CC[C@H](C)[C@H](NC(=O)[C@H](Cc1ccccc1)NC(=O)[C@H](CC(=O)O)NC(=O)[C@H](CCCNC(=N)N)NC(=O)[C@H](C)NC(=O)[C@H](C)NC(=O)[C@H](CCC(N)=O)NC(=O)[C@H](CCC(=O)O)NC(=O)[C@H](CC(=O)O)NC(=O)[C@H](CC(C)C)NC(=O)[C@@H](NC(=O)[C@@H](NC(=O)[C@H](C)NC(=O)[C@H](CC(C)C)NC(=O)[C@H](CCC(=O)O)NC(=O)[C@H](CO)NC(=O)[C@@H](NC(=O)[C@H](Cc1ccccc1)NC(=O)[C@H](CO)NC(=O)CNC(=O)[C@H](CCC(=O)O)NC(=O)C(C)(C)NC(=O)[C@@H](N)Cc1c[nH]cn1)[C@@H](C)O)[C@@H](C)O)[C@@H](C)CC)C(=O)N[C@@H](C)C(=O)N[C@@H](Cc1c[nH]c2ccccc12)C(=O)N[C@@H](CC(C)C)C(=O)N[C@@H](Cc1c[nH]cn1)C(=O)N[C@@H](C)C(=O)N[C@@H](Cc1c[nH]cn1)C(=O)N[C@@H](CCCCN)C(=O)N[C@H](C(=O)N[C@H](C(=O)N[C@@H](CC(=O)O)C(=O)O)[C@@H](C)O)[C@@H](C)CC

The next lines start with the binder.

B3: Compound 19 (peptide)
peptide: H-H[Aib]EGTFTSELATILDEQAARDFIAWLIAQKITD-OH
SMILES: CC[C@H](C)[C@H](NC(=O)[C@H](CC(C)C)NC(=O)[C@H](Cc1c[nH]c2ccccc12)NC(=O)[C@H](C)NC(=O)[C@@H](NC(=O)[C@H](Cc1ccccc1)NC(=O)[C@H](CC(=O)O)NC(=O)[C@H](CCCNC(=N)N)NC(=O)[C@H](C)NC(=O)[C@H](C)NC(=O)[C@H](CCC(N)=O)NC(=O)[C@H](CCC(=O)O)NC(=O)[C@H](CC(=O)O)NC(=O)[C@H](CC(C)C)NC(=O)[C@@H](NC(=O)[C@@H](NC(=O)[C@H](C)NC(=O)[C@H](CC(C)C)NC(=O)[C@H](CCC(=O)O)NC(=O)[C@H](CO)NC(=O)[C@@H](NC(=O)[C@H](Cc1ccccc1)NC(=O)[C@@H](NC(=O)CNC(=O)[C@H](CCC(=O)O)NC(=O)C(C)(C)NC(=O)[C@@H](N)Cc1c[nH]cn1)[C@@H](C)O)[C@@H](C)O)[C@@H](C)O)[C@@H](C)CC)[C@@H](C)CC)C(=O)N[C@@H](C)C(=O)N[C@@H](CCC(N)=O)C(=O)N[C@@H](CCCCN)C(=O)N[C@H](C(=O)N[C@H](C(=O)N[C@@H](CC(=O)O)C(=O)O)[C@@H](C)O)[C@@H](C)CC
EC50 GLP-1 (nM); cAMP AlphaScreen [1]: 0.005 nM
EC50 GLP-2 (nM); cAMP AlphaScreen [2]: 0.15 nM

B4: Compound 17 (peptide)
peptide: H-H[Aib]EGTFTSELATILDEQAARDFIAWLIRHKITD-OH
SMILES: CC[C@H](C)[C@H](NC(=O)[C@H](Cc1ccccc1)NC(=O)[C@H](CC(=O)O)NC(=O)[C@H](CCCNC(=N)N)NC(=O)[C@H](C)NC(=O)[C@H](C)NC(=O)[C@H](CCC(N)=O)NC(=O)[C@H](CCC(=O)O)NC(=O)[C@H](CC(=O)O)NC(=O)[C@H](CC(C)C)NC(=O)[C@@H](NC(=O)[C@@H](NC(=O)[C@H](C)NC(=O)[C@H](CC(C)C)NC(=O)[C@H](CCC(=O)O)NC(=O)[C@H](CO)NC(=O)[C@@H](NC(=O)[C@H](Cc1ccccc1)NC(=O)[C@@H](NC(=O)CNC(=O)[C@H](CCC(=O)O)NC(=O)C(C)(C)NC(=O)[C@@H](N)Cc1c[nH]cn1)[C@@H](C)O)[C@@H](C)O)[C@@H](C)O)[C@@H](C)CC)C(=O)N[C@@H](C)C(=O)N[C@@H](Cc1c[nH]c2ccccc12)C(=O)N[C@@H](CC(C)C)C(=O)N[C@H](C(=O)N[C@@H](CCCNC(=N)N)C(=O)N[C@@H](Cc1c[nH]cn1)C(=O)N[C@@H](CCCCN)C(=O)N[C@H](C(=O)N[C@H](C(=O)N[C@@H](CC(=O)O)C(=O)O)[C@@H](C)O)[C@@H](C)CC)[C@@H](C)CC
EC50 GLP-1 (nM); cAMP AlphaScreen [1]: 0.006 nM
EC50 GLP-2 (nM); cAMP AlphaScreen [2]: 0.066 nM

B6: Compound 18 (peptide)
peptide: H-H[Aib]EGTFTSELATILDEQAARDFIAWLISHKITD-OH
SMILES: CC[C@H](C)[C@H](NC(=O)[C@H](Cc1ccccc1)NC(=O)[C@H](CC(=O)O)NC(=O)[C@H](CCCNC(=N)N)NC(=O)[C@H](C)NC(=O)[C@H](C)NC(=O)[C@H](CCC(N)=O)NC(=O)[C@H](CCC(=O)O)NC(=O)[C@H](CC(=O)O)NC(=O)[C@H](CC(C)C)NC(=O)[C@@H](NC(=O)[C@@H](NC(=O)[C@H](C)NC(=O)[C@H](CC(C)C)NC(=O)[C@H](CCC(=O)O)NC(=O)[C@H](CO)NC(=O)[C@@H](NC(=O)[C@H](Cc1ccccc1)NC(=O)[C@@H](NC(=O)CNC(=O)[C@H](CCC(=O)O)NC(=O)C(C)(C)NC(=O)[C@@H](N)Cc1c[nH]cn1)[C@@H](C)O)[C@@H](C)O)[C@@H](C)O)[C@@H](C)CC)C(=O)N[C@@H](C)C(=O)N[C@@H](Cc1c[nH]c2ccccc12)C(=O)N[C@@H](CC(C)C)C(=O)N[C@H](C(=O)N[C@@H](CO)C(=O)N[C@@H](Cc1c[nH]cn1)C(=O)N[C@@H](CCCCN)C(=O)N[C@H](C(=O)N[C@H](C(=O)N[C@@H](CC(=O)O)C(=O)O)[C@@H](C)O)[C@@H](C)CC)[C@@H](C)CC
EC50 GLP-1 (nM); cAMP AlphaScreen [1]: 0.006 nM
EC50 GLP-2 (nM); cAMP AlphaScreen [2]: 0.054 nM

B7: Compound 20 (peptide)
peptide: H-H[Aib]EGTFTSELATILDEQAARDFIAWLIAYKITD-OH
SMILES: CC[C@H](C)[C@H](NC(=O)[C@H](CC(C)C)NC(=O)[C@H](Cc1c[nH]c2ccccc12)NC(=O)[C@H](C)NC(=O)[C@@H](NC(=O)[C@H](Cc1ccccc1)NC(=O)[C@H](CC(=O)O)NC(=O)[C@H](CCCNC(=N)N)NC(=O)[C@H](C)NC(=O)[C@H](C)NC(=O)[C@H](CCC(N)=O)NC(=O)[C@H](CCC(=O)O)NC(=O)[C@H](CC(=O)O)NC(=O)[C@H](CC(C)C)NC(=O)[C@@H](NC(=O)[C@@H](NC(=O)[C@H](C)NC(=O)[C@H](CC(C)C)NC(=O)[C@H](CCC(=O)O)NC(=O)[C@H](CO)NC(=O)[C@@H](NC(=O)[C@H](Cc1ccccc1)NC(=O)[C@@H](NC(=O)CNC(=O)[C@H](CCC(=O)O)NC(=O)C(C)(C)NC(=O)[C@@H](N)Cc1c[nH]cn1)[C@@H](C)O)[C@@H](C)O)[C@@H](C)O)[C@@H](C)CC)[C@@H](C)CC)C(=O)N[C@@H](C)C(=O)N[C@@H](Cc1ccc(O)cc1)C(=O)N[C@@H](CCCCN)C(=O)N[C@H](C(=O)N[C@H](C(=O)N[C@@H](CC(=O)O)C(=O)O)[C@@H](C)O)[C@@H](C)CC
EC50 GLP-1 (nM); cAMP AlphaScreen [1]: 0.012 nM
EC50 GLP-2 (nM); cAMP AlphaScreen [2]: 0.26 nM
